This passage reports Kd results from paper PMC9965484.

The series addresses Fibroblast activation protein (FAP), recombinant human, carrier-free (BioLegend) (Homo sapiens) (UniProt Q12884). Briefly: CE-LIF (NECEEM). The conditions noted are these: CE-LIF/NECEEM: buffer for Kd not stated, CE separation (SELEX) 20 kV, 25 C, specificity: 10 min at 37 C, PBS pH 7.2 as control, AuNP assay: room temperature ….
Sequence of UniProt Q12884 (Q12884 whole entry): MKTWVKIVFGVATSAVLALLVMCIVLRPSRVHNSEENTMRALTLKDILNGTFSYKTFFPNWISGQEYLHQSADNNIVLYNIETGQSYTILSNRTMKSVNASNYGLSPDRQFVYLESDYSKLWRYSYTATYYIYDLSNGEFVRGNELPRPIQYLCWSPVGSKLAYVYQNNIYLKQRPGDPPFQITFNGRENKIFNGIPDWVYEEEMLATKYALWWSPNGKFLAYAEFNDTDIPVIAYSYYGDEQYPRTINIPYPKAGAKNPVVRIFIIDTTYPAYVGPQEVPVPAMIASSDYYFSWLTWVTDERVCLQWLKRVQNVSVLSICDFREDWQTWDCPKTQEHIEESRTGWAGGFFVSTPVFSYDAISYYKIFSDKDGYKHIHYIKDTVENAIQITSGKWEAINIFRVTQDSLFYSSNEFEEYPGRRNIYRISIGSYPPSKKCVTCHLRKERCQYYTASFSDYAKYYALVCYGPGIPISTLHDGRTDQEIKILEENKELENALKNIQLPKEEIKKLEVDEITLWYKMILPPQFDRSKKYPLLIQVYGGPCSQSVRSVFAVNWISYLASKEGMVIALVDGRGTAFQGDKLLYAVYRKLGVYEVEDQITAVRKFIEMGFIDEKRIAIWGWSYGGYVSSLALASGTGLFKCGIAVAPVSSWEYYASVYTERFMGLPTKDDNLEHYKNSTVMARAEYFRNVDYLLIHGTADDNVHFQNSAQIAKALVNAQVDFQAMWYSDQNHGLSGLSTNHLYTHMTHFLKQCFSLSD

What is called Kd is the concentration at which binding is half-saturated. Regarding “AGCAGCACAGAGGTCAGATGCCGCAGGCAGCTGCCATTAGTCTCTATCCGTGACGGTATGCCTATGCGTGCTACCGTGAA [AptFAP-A4]”, the Kd turned out to be 500 nM.
Turning to “AGCAGCACAGAGGTCAGATGGCAGCTAAGCAGGCGGCTCACAAAACCATTCGCATGCGGCCCTATGCGTGCTACCGTGAA [AptFAP-A5]”, the Kd (exact value only in figure) is greater than 1000 nM.
On to “AGCAGCACAGAGGTCAGATGGCCACATTAGTCTCACCACTACCTGCGTACCTACCGCCGCCCTATGCGTGCTACCGTGAA [AptFAP-A2]”, for which, where the note is “lowest affinity of the five, exact value only in figure”, the Kd was greater than 1000 nM.
With “AGCAGCACAGAGGTCAGATGGCCATCCCCCCGTCCGATGAGTGGTGCTCCTATGCGTTCCCCTATGCGTGCTACCGTGAA [AptFAP-A3]”, where the note is “exact value only in figure”, the dissociation constant Kd is greater than 1000 nM.
For the sequence “AGCAGCACAGAGGTCAGATGGCGAAGCGTACCGGCTACCCAGTGACAGTCGCCGTGGGTCCCTATGCGTGCTACCGTGAA [AptFAP-A1]”, the Kd came out at 500 nM.
